We go through 1 protein from PMC2180222 (The Journal of Cell Biology, 2000).

The series deals with the molecule itself. As to the kind of experiment: negative-stain electron microscopy.

B1: HIV-1 Rev (natural protein, UniProt P04616 1-116, looked up)
chain: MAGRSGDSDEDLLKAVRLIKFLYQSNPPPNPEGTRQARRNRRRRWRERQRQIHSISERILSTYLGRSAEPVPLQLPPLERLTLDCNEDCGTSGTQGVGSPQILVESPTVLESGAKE
Take B1: the binding result is “binds”.
